Data from PMC6547421, “A unique exonuclease ExoG cleaves between RNA and DNA in mitochondrial DNA replication” (Nucleic Acids Research, 2019).
Substitutions are numbered along the chain they refer to. Names may count otherwise.

T1: ExoG-H140A (catalytically dead) (Homo sapiens, UniProt Q9Y2C4 42-368, H140A)
T1 sequence: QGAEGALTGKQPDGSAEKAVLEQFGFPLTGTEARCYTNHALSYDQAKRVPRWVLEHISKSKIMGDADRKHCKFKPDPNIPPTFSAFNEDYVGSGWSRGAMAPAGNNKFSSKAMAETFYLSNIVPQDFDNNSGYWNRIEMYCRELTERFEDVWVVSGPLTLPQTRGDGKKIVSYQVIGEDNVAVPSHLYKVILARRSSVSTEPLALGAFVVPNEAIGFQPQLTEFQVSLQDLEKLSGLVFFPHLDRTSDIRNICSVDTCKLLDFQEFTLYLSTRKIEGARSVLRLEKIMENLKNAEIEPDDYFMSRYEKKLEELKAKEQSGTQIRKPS

T2: ExoG-H140A/F168A (Homo sapiens, UniProt Q9Y2C4 42-368, H140A;F168A)
T2 sequence: T1 sequence with F127A

T3: ExoG-H140A/N176A (Homo sapiens, UniProt Q9Y2C4 42-368, H140A;N176A)
T3 sequence: T1 sequence with N135A

B1: 12-bp palindromic DNA (crystal) (dsDNA)
DNA 1: CGGGATATCCCG
DNA 2: CGGGATATCCCG
modifications: 5'-OH and 3'-OH
B2: human ExoG-H140A (catalytically dead mutant of Exonuclease G, without the N-terminal MLS) (enzyme, UniProt Q9Y2C4 42-368, looked up)
chain: T1 sequence
notes: source: E. coli Rosetta 2 (DE3) pLysS, purified (HisTrap HP, Superdex 200 gel filtration)
B3: 12-nt R2-DNA/DNA chimeric duplex (crystal) (mixed)
DNA 1: CGGGATGTCACG
DNA 2: CGTGACATCCCG
modifications: two 5'-end ribonucleotides and 5'-phosphate on scissile strand; complement DNA 5'-OH
B4: 12-bp RNA/DNA hybrid (crystal) (DNA:RNA)
RNA: CGGGAUGUCACG
DNA: CGTGACATCCCG
modifications: 5'-phosphate on RNA strand; DNA strand 5'-OH
B5: R2-DNA/DNA (mixed)
DNA 1: GCTTAACGCTGACTCGCTAC
DNA 2: GTAGCGAGTCAGCGTTAAGCACTATCATAGCCATCTGCCATTACTG
modifications: strand 1 nt 1-2 (GC) are ribonucleotides, rest DNA; 5'-phosphate on strand 1
B6: DNA/DNA (dsDNA)
DNA 1: GCTTAACGCTGACTCGCTAC
DNA 2: B5 DNA 2
modifications: 5'-phosphate on strand 1
B7: RNA/DNA (DNA:RNA)
RNA: GCUUAACGCUGACUCGCUAC
DNA: B5 DNA 2
modifications: strand 1 RNA with 5'-phosphate; strand 2 DNA

Columns and labels:
[1] = biological target: T1, ExoG-H140A (catalytically dead); assay: crystal structure (2.3 A); Mg2+; one duplex per protomer; FP: 10 nM FAM substrate, 10 mM HEPES pH 7.4, 150 mM NaCl, 2.5 mM MgCl2; temperature not stated; settings: protein: recombinant; tags: N-terminal His; chain copies: 2; blunt, self-complementary, 2 copies of strand
[2] = biological target: the molecule itself; assay: crystal structure; ExoG-H140A co-crystallised with a 12-bp dsDNA, an RNA/DNA hybrid duplex or an R2-DNA/DNA chimeric duplex (protein to substrate 1:1.2, 2 mM MgCl2), hanging drop vapor diffusion at 4°C; ExoG dimer in the asymmetric unit, each protomer bound to one duplex
[3] = biological target: T1, ExoG-H140A (catalytically dead); assay: crystal structure (3.0 A); Mg2+; one duplex per protomer; FP: 10 nM FAM substrate, 10 mM HEPES pH 7.4, 150 mM NaCl, 2.5 mM MgCl2; temperature not stated; settings: protein: recombinant; tags: N-terminal His; chain copies: 2; 12-bp duplex
[4] = biological target: T1, ExoG-H140A (catalytically dead); assay: crystal structure (2.8 A); Mg2+; one duplex per protomer; FP: 10 nM FAM substrate, 10 mM HEPES pH 7.4, 150 mM NaCl, 2.5 mM MgCl2; temperature not stated; settings: protein: recombinant; tags: N-terminal His; chain copies: 2; 12-bp duplex
[5] = biological target: T2, ExoG-H140A/F168A; assay: fluorescence polarization; 2.5 mM Mg2+; FP: 10 nM FAM substrate, 10 mM HEPES pH 7.4, 150 mM NaCl, 2.5 mM MgCl2; temperature not stated; settings: protein: recombinant; tags: N-terminal His; chain copies: 2; label: 3'-FAM strand 1; 5'-biotin strand 2; 20-bp duplex, 26-nt 3' overhang on strand 2
[6] = biological target: T1, ExoG-H140A (catalytically dead); assay: as above; settings: protein: recombinant; tags: N-terminal His; chain copies: 2; label: 3'-FAM strand 1; 5'-biotin strand 2; 20-bp duplex, 26-nt 3' overhang on strand 2
[7] = biological target: T3, ExoG-H140A/N176A; assay: as above; settings: protein: recombinant; tags: N-terminal His; chain copies: 2; label: 3'-FAM strand 1; 5'-biotin strand 2; 20-bp duplex, 26-nt 3' overhang on strand 2

Binder | Kd [5] [nM] | Kd [6] [nM] | Kd [7] [nM] | also measured
B1 | – | – | – | binding result [1]: binds
B2 | – | – | – | binding result [2]: binds
B3 | – | – | – | binding result [3]: binds
B4 | – | – | – | binding result [4]: binds
B5 | 3150 ± 259 | 1030 ± 86 | 930 ± 63 | –
B6 | 3930 ± 188 | 1320 ± 79 | 950 ± 63 | –
B7 | 250 ± 14 | 190 ± 10 | 120 ± 8 | –
